Drawing on paper PMC5836133, “The intracellular immune receptor Rx1 regulates the DNA-binding activity of a Golden2-like transcription factor”, this text covers Kd for three molecules.

As a reminder, the Kd is the equilibrium constant for the complex coming apart.

Series [1] addresses T1, NbGlk1(83-402) (Nicotiana benthamiana).
T1 chain: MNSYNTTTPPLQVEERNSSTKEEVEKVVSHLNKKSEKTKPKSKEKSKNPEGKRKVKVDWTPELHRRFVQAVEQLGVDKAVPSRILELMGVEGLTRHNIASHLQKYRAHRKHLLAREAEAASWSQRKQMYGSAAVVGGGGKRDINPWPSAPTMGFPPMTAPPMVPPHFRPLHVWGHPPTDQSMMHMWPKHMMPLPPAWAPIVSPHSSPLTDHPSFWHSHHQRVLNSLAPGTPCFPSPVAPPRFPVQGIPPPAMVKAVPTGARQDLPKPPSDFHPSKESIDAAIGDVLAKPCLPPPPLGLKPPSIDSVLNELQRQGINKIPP
The series is described as follows: fluorescence anisotropy; Fluorescence anisotropy: 20 mM Tris-HCl pH 7.4, 140 mM NaCl, 1 mM DTT, 10 nM labelled DNA; temperature not stated. PBM conditions as in cited protocols. The conditions noted are these: protein: recombinant, tags: His6 (pET14b), annealed complementary oligonucleotides. (In general: Fluorescence polarisation rises when a labelled molecule tumbles more slowly, as on binding a larger partner.)

Series [2] has as its target T2, NbGlk1(83-243) (Nicotiana benthamiana).
T2 chain: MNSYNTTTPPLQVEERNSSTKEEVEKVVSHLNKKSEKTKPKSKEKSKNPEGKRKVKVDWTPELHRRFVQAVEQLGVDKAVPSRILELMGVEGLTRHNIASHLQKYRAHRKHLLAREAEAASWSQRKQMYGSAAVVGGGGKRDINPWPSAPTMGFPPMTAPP
The series is described as above. The note with it: protein: recombinant, tags: His6 (pET14b), annealed complementary oligonucleotides.

Series [3] addresses T3, NbGlk1(83-243) (Nicotiana benthamiana, UniProt A0A1S4ALG4 83-252).
T3 sequence: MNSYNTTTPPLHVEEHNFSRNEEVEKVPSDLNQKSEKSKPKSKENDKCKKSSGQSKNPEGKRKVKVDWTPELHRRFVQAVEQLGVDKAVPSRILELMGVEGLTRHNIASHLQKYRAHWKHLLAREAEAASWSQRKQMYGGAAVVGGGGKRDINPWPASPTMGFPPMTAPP
Description: fluorescence anisotropy. The conditions noted are these: 20 mM Tris-HCl pH 7.4, 140 mM NaCl, 1 mM DTT, 10 nM fluorescein-labelled dsDNA, temperature not stated, Kd unit uM inferred from text (Kd >1 uM).

Series [4] concerns the target T4, NbGlk1(83-402) (Nicotiana benthamiana, UniProt A0A1S4ALG4 83-410).
T4 sequence: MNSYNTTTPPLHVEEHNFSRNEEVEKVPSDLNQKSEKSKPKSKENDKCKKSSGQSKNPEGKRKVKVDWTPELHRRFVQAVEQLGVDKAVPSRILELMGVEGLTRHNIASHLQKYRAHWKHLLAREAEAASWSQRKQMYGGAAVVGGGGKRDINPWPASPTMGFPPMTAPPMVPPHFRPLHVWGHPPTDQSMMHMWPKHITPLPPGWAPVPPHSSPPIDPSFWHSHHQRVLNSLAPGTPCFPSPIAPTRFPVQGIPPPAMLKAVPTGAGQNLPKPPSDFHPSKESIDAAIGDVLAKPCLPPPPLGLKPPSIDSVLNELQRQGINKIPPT
Description: fluorescence anisotropy. The note with it: 20 mM Tris-HCl pH 7.4, 140 mM NaCl, 1 mM DTT, 10 nM fluorescein-labelled dsDNA, temperature not stated, Kd unit uM inferred from text (Kd >1 uM).

Series [5] relates to NbGlk1(1-243) (Nicotiana benthamiana). The series is described as follows: fluorescence anisotropy. The conditions noted are these: 20 mM Tris-HCl pH 7.4, 140 mM NaCl, 1 mM DTT, 10 nM fluorescein-labelled dsDNA, temperature not stated, Kd unit uM inferred from text (Kd >1 uM).
Series [6] deals with T4, NbGlk1(83-402). Description: fluorescence anisotropy; no Rx1 (Table 2 series); 20 mM Tris-HCl pH 7.4, 140 mM NaCl, 1 mM DTT; 10 nM fluorescein-labelled dsDNA; temperature not stated; Kd unit uM inferred from text (Kd >1 uM). The conditions noted are these: protein: recombinant; tags: His6 (pET14b); label: 6-carboxyfluorescein end label on FA-1; annealed complementary oligonucleotides.

Series [7] has as its target T3, NbGlk1(83-243). Description: fluorescence anisotropy; no Rx1; 20 mM Tris-HCl pH 7.4, 140 mM NaCl, 1 mM DTT; 10 nM fluorescein-labelled dsDNA; temperature not stated; Kd unit uM inferred from text (Kd >1 uM). The conditions noted are these: protein: recombinant; tags: His6 (pET14b); label: 6-carboxyfluorescein end label on FA-1; annealed complementary oligonucleotides.

Series [8] has as its target T4, NbGlk1(83-402). Described as above. The conditions noted are these: protein: recombinant; tags: His6 (pET14b); label: 6-carboxyfluorescein end label on FA-1; annealed complementary oligonucleotides.
The mark [9] stands for this setting: label: 6-carboxyfluorescein end label on FA-5.
Where [10] appears, read: label: 6-carboxyfluorescein end label on FA-3.
[11] abbreviates: label: 6-carboxyfluorescein end label on FA-1.

Several values for one entry are separate records, joined by “and”; a condition that tells them apart may be missing. Equal values may be shown once.

B1: GATATC (concatenated GGATATCC; FA-5/FA-6) (dsDNA)
DNA 1: CGGATATCCACGGATATCCACGGATATCCACGGATATCCACGGATATCCC
DNA 2: GGGATATCCGTGGATATCCGTGGATATCCGTGGATATCCGTGGATATCCG
Take B1: the dissociation constant Kd was 80 nM and 110 nM with NbGlk1(83-402) [1] (setting [9]); 180 ± 10 nM in the series with NbGlk1(83-243) [2] (setting [9]); 0.4 µM in the series with NbGlk1(83-243) [3] (+ Rx1(1-144)); 0.5 µM in the series with NbGlk1(83-243) [3] (+ Rx1(1-489)); 0.18 µM in the series with NbGlk1(83-243) [3] (no Rx1); 0.3 µM with NbGlk1(83-402) [4] (+ Rx1(1-144)). Moreover, the dissociation constant Kd with NbGlk1(83-402) [4] (+ Rx1(1-489)) was 0.19 µM; with NbGlk1(83-402) [4] (+ Rx1(GST-1-144)) it was 0.34 µM; in the series with NbGlk1(83-402) [4] (no Rx1 (Table 2 series)), 0.11 µM; in the series with NbGlk1(83-402) [4] (no Rx1), 0.08 µM; in series [5] (+ Rx1(1-144)) it was over 1 µM; in series [5] (+ Rx1(1-489)) it was over 1 µM. The Kd in series [5] (no Rx1, text: only a weak affinity) is over 1 µM.

B2: AGATTT (concatenated AGATTTCC; FA-3/FA-4) (dsDNA)
DNA 1: CAGATTTCCACAGATTTCCACAGATTTCCACAGATTTCCACAGATTTCCC
DNA 2: GGGAAATCTGTGGAAATCTGTGGAAATCTGTGGAAATCTGTGGAAATCTG
With B2, the Kd in the series with NbGlk1(83-402) [1] (setting [10]) was 160 nM and 220 nM; in the series with NbGlk1(83-243) [2] (setting [10]), 230 ± 10 nM; in the series with NbGlk1(83-243) [3] (+ Rx1(1-144)), 0.76 µM; with NbGlk1(83-243) [3] (+ Rx1(1-489)), 0.65 µM; with NbGlk1(83-243) [3] (no Rx1), 0.23 µM; in the series with NbGlk1(83-402) [4] (+ Rx1(1-144)) it was 0.46 µM. Moreover, the Kd is 0.34 µM with NbGlk1(83-402) [4] (+ Rx1(1-489)), 0.73 µM with NbGlk1(83-402) [4] (+ Rx1(GST-1-144)), 0.22 µM with NbGlk1(83-402) [4] (no Rx1 (Table 2 series)) and 0.16 µM in the series with NbGlk1(83-402) [4] (no Rx1).

B3: No site (FA-1/FA-2) (dsDNA)
DNA 1: CACTGTGACACACTGTGACACACTGTGACACACTGTGACACACTGTGACC
DNA 2: GGTCACAGTGTGTCACAGTGTGTCACAGTGTGTCACAGTGTGTCACAGTG
B3: the Kd with NbGlk1(83-402) [6] was 320 ± 30 nM; in the series with NbGlk1(83-402) [1] (setting [11]), 320 nM and 180 nM; in the series with NbGlk1(83-243) [2] (setting [11]) it was 330 ± 20 nM; with NbGlk1(83-243) [7], 330 ± 20 nM; with NbGlk1(83-402) [8], 180 ± 10 nM.
